Source: patent US20220281980A1 (Bristol-Myers Squibb, published 2022)

What was measured:
[1] = biological target: T1, human MICB expressed on transduced cells (human, UniProt Q29980 23-382); experiment: flow cytometry, transfected CHO cells
T1 construct: also called MICB*005
T1 chain: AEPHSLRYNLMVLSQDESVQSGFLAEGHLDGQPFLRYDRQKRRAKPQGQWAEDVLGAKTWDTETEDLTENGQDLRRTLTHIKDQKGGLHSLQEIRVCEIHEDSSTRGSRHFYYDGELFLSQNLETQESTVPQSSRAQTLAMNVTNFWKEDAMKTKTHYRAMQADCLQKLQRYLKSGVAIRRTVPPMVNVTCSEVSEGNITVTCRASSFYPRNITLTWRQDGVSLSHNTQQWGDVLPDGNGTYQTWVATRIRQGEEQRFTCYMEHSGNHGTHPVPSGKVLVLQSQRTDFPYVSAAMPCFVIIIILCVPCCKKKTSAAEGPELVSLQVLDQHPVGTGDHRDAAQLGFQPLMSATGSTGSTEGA

[2] = biological target: T2, human MICA*008 expressed on CHO cells (human, UniProt Q29983 24-331); experiment: flow cytometry, transfected CHO cells
T2 construct: also called MICA allele 008
T2 chain: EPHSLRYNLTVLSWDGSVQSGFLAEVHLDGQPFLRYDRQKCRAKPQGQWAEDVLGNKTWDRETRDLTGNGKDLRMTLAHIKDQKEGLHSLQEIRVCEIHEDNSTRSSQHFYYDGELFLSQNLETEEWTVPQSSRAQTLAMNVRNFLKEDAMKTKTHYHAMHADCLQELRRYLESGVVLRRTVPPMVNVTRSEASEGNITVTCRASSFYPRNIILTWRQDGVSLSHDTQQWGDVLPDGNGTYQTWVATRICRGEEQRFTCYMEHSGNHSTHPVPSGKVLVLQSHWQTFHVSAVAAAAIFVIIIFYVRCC

[3] = biological target: T3, human MICA*010 expressed on CHO cells (human, UniProt Q29983 24-383); experiment: flow cytometry, transfected CHO cells
T3 construct: also called MICA allele 010
T3 chain: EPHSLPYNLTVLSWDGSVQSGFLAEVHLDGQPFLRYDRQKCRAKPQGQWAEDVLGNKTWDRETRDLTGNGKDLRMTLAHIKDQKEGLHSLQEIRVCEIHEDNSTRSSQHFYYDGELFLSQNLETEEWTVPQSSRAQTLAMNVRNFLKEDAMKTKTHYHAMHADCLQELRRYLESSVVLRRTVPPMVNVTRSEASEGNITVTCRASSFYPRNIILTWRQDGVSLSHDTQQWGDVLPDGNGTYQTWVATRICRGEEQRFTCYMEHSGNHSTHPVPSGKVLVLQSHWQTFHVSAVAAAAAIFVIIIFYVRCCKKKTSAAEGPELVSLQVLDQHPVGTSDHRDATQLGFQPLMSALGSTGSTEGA

[4] = biological target: T4, human MICA*002 expressed on CHO cells (human, UniProt Q29983 24-382); experiment: flow cytometry, transfected CHO cells
T4 construct: also called MICA allele 002
T4 chain: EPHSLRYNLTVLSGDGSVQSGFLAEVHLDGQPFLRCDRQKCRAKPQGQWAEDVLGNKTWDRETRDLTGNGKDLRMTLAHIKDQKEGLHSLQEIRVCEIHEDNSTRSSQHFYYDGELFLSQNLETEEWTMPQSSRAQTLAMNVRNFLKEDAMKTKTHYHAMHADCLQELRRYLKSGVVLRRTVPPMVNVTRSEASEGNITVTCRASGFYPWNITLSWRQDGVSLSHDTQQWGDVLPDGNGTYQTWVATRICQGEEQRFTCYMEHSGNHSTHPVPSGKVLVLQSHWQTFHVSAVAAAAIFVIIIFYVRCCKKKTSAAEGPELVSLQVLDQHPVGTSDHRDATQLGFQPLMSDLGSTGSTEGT

[5] = biological target: T5, cynomolgus monkey MICA/B clone #4 expressed on CHO cells (cynomolgus monkey); experiment: flow cytometry, transfected CHO cells
T5 construct: whole, on cells; also called cyno#4; CHO-cyno MICA clone #4

[6] = biological target: T6, human MICA*009 expressed on CHO cells (human, UniProt Q29983 24-382); experiment: flow cytometry, transfected CHO cells
T6 construct: also called MICA allele 009
T6 chain: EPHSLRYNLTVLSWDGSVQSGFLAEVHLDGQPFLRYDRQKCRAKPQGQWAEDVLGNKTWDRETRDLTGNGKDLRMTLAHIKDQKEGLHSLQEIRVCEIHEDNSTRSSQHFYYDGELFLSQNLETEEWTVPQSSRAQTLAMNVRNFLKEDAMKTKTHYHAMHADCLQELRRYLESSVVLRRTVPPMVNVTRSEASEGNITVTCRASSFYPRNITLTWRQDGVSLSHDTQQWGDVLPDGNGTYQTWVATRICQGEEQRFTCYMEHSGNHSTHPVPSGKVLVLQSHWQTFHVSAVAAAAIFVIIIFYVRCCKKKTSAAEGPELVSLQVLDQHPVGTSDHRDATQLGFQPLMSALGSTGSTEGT

[7] = biological target: T7, recombinant soluble human MICA*008 antigen (human, UniProt Q29983 24-307); experiment: BLI (Octet) sandwich binning on soluble MICA allele 8, row antibody captured; competitor (second antibody): MICA.39
T7 construct: also called huIMICA-his allele *008; recombinant soluble MICA (allele 8)
T7 chain: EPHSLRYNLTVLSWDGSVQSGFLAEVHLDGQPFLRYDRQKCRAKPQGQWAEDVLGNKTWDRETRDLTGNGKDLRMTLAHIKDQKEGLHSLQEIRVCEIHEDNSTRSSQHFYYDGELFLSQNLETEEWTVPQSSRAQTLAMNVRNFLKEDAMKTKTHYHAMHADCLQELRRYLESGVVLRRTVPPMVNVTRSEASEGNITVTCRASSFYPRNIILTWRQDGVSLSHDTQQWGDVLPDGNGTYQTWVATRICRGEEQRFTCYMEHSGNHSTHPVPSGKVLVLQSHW
Procedure: (§1) The binning experiments were performed on an Octet HTX instrument at 25° C. in HEPES buffered saline (10 mM HEPES pH 7.4, 150 mM NaCl, 0.05% v/v surfactant P20, and 1 mg/mL BSA). Anti-MICA/B antibodies and NKG2D-mFc were captured on anti-Fc tips and remaining capture sites were blocked with an excess of negative control IgG. Recombinant soluble MICA (allele 8) was bound and subsequent binding (“sandwiching”) of anti-MICA/B antibodies was tested.

[8] = biological target: T7, recombinant soluble human MICA*008 …; experiment: BLI (Octet) sandwich binning on soluble MICA allele 8, row antibody captured; competitor (second antibody): MICA.38
Procedure: as §1

[9] = biological target: T7, recombinant soluble human MICA*008 …; experiment: BLI (Octet) sandwich binning on soluble MICA allele 8, row antibody captured; competitor (second antibody): 24G11
Procedure: as §1

B1: MICA.2 (antibody, human IgG1, kappa, V domains shown)
VH: EVQLVESGGGLVQPGGSLRLSCAASGFTFSTYSMNWVRQAPGKGLEWVSYISYRSRTIYYADSVKGRFTISRDNARNSLYLQMNSLRDEDTAVYYCARWGYGSGGFDYWGQGTLVTVSS
VL: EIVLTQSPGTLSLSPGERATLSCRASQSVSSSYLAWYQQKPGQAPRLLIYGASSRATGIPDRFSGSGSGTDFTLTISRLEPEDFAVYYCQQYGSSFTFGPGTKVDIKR
notes: 3F5 variable regions on human IgG1f and human kappa constant regions, made in CHO-S cells; also called 3F5; recombinant antibody of 3F5
Binder B1 has an EC50 [1] of 6 nM, an EC50 [2] of 2.14 nM and an EC50 [3] of 6.91 nM. The EC50 [4] was 5.37 nM, the EC50 [5] was 1.97 nM and the EC50 [6] was 1.56 nM. For the same binder, the “simultaneous binding (0 = no, 1 = yes)” value [7] was 0, the “simultaneous binding (0 = no, 1 = yes)” value [8] was 0 and the “simultaneous binding (0 = no, 1 = yes)” value [9] was 1.

B2: MICA.36 (antibody, V domains shown)
VH: QVQLVESGGGVVQPGRSLRLSCAASGFTFSNYAMHWVRQAPGEGLEWVALIWYDGSNKFYGDSVKGRFTISRDNSKNTLYLQMNSLSAEDTAVYYCAREGSGHYWGQGTLVTVSS
VL: AIQLTQSPSSLSASVGDRVTITCRASQGISSALAWYQQKPGKVPKSLIYDASSLESGVPSRFSGSGSGTDFTLTISSLQPEDFATYYCQQFNSYPITFGQGTRLEIK
notes: it says that the name implies no specific constant region; Radioiodinated in the Scatchard assay; also called MICA.36 antibody
In the case of B2, the “simultaneous binding (0 = no, 1 = yes)” value [7] is reported as 1, the “simultaneous binding (0 = no, 1 = yes)” value [8] is reported as 1 and the “simultaneous binding (0 = no, 1 = yes)” value [9] is reported as 0.

B3: 19G6 (antibody, V domains shown)
VH: QVQLVESGGGVVQPGRSLRLSCAASGFTFSNYAMHWVRQAPGEGLEWVALIWYDGSNKFYGDSVKGRFTISRDNSKNTLYLQMNSLSAEDTAVYYCAREGSGHYWGQGTLVTVSS
VL: AIQLTQSPSSLSASVGDRVTITCRASQGISSALAWYQQKPGKVPKSLIYDASSLESGVPSRFSGSGSGTDFTLTISSLQPEDFATYYCQQFNSYPITFGQGTRLEIK
notes: Hybridoma antibody from human IgG transgenic mice, parent of MICA.36; also called 19G6 mAb; hybridoma 19G6
Work on B3 yielded an EC50 [1] of 1.83 nM, an EC50 [2] of 9.23 nM and an EC50 [3] of 18.5 nM. For the same binder, the EC50 [4] was 152 nM, the EC50 [5] was 1.08 nM and the EC50 [6] was 8.21 nM.

B4: 71C2 (antibody, V domains shown)
VH: EVQLVESGGGLVQPGRSLRLSCAASGFTFNNYAMHWVRQAPGKGLEWVSGITWNSDSIGYADSVKGRFTISRDNAKNSLYLQMNSLRAEDTALYYCAKDSVLLWFGGMDVWGQGTTVTVSS
VL: not shown
notes: Hybridoma antibody
In the case of B4, the EC50 [1] is reported as 9.81 nM, the EC50 [2] is reported as 10 nM and the EC50 [3] is reported as 80 nM. The EC50 [4] was 264 nM, the EC50 [5] was 23.4 nM and the EC50 [6] was 10.2 nM.

B5: 24G11 (antibody, V domains shown)
VH: EVQLVQSGAEVKKPGESLKISCKGSGYSFTNYWIGWVRQMPGKGLEWLGIIHPGDSYTRYSPSFQGQVTISADKSISTAYLQWSSLKASDTAIYYCAREGIAATPFDYWGQGTLVTVSS
VL: EIVLTQSPATLSLSPGERATLSCRASQSVSSYLAWFQQKPGQAPRLLIYDASNRATGIPARFSGSGSGTDFTLTISSLEPEDFAVYYCQQRSNWPPTFGQGTKVEIK
notes: also called MICA.54; 24G11 (MICA.54)
B5 showed an EC50 [1] of 262 nM, an EC50 [2] of 248 nM and an EC50 [3] of 722 nM. The EC50 [4] was 1060 nM, the EC50 [5] was 394 nM and the EC50 [6] was 497 nM. The “simultaneous binding (0 = no, 1 = yes)” value [7] was 1, the “simultaneous binding (0 = no, 1 = yes)” value [8] was 1 and the “simultaneous binding (0 = no, 1 = yes)” value [9] was 0.
